# T1: Human Semaphorin3A-Sema Domain, TPP-19068 (human, UniProt Q14563 21-569)
# T1 construct: produced inhouse in HEK293-6E; also called human monovalent Sema3A domain
# T1 sequence: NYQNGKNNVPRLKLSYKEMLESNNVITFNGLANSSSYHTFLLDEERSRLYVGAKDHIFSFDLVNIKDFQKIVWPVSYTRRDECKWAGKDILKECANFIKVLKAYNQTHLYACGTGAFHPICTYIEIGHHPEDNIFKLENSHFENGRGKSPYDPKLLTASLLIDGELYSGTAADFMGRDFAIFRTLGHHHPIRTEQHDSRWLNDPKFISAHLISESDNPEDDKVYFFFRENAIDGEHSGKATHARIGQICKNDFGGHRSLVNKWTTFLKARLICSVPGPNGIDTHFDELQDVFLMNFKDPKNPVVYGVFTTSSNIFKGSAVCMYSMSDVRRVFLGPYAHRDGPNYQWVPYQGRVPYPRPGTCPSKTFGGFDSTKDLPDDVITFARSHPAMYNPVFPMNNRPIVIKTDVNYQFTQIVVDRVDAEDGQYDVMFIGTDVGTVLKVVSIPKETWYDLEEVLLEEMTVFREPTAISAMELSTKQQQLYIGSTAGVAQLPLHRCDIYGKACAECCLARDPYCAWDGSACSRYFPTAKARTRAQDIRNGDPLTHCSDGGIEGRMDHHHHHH
# T2: Pig Semaphorin3A-Sema Domain, TPP-20176 (pig, UniProt Q63548 21-569 (rat entry))
# T2 construct: produced inhouse
# T2 chain: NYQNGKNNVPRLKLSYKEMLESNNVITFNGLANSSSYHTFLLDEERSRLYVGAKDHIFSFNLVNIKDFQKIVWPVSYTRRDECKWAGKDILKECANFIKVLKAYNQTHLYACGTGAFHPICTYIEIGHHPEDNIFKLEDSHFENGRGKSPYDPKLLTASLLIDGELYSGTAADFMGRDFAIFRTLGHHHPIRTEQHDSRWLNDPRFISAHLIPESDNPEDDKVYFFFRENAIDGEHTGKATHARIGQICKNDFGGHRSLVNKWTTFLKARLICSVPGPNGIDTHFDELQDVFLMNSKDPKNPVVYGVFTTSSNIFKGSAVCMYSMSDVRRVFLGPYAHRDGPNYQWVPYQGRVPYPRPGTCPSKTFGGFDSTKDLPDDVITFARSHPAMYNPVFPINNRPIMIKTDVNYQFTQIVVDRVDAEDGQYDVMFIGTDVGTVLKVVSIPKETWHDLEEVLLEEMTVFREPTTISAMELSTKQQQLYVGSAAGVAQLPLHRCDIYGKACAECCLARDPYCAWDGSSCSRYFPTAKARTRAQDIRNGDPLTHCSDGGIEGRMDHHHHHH
# T3: Dog Semaphorin3A-Sema Domain, TPP-19121 (dog, UniProt Q63548 21-569 (rat entry), limits assumed)
# T3 construct: produced inhouse
# T3 chain: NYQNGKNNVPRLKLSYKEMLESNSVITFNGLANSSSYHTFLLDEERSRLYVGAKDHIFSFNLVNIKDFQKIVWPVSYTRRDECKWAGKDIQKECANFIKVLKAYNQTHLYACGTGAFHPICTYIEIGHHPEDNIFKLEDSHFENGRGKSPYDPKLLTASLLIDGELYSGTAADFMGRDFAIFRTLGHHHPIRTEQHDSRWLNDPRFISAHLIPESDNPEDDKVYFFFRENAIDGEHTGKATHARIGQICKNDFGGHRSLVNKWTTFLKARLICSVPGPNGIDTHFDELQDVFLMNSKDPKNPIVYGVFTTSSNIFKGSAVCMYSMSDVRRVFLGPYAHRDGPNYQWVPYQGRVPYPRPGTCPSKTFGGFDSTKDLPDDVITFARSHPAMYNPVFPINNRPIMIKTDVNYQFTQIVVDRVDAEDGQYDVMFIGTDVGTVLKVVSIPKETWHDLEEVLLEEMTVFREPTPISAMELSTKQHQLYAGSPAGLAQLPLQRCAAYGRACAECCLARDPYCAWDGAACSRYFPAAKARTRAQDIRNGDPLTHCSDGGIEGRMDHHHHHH
# Assays:
# [1] = biological target: T1, Human Semaphorin3A-Sema Domain, …; assay: SPR, captured antibody, Sema3A domain analyte
# How it was run: (§1)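 Kinetics fitted to a 1:1 Langmuir model after double referencing; glycine pH 2.0 regeneration. Sema3A domain analytes (several species) ran at […]-3.125 nM multi-cycle or single 100 nM; Fc-tagged Sema3A at 1.56-200 nM over Fab-captured antibody, otherwise Fc capture. Buffer HBS P+ plus 300 mM NaCl, CaCl₂, MgCl₂, BSA, 25° C.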
# [2] = biological target: T2, Pig Semaphorin3A-Sema Domain, TPP-20176; assay: SPR, captured antibody, Sema3A domain analyte
# How it was run: as §1
# [3] = biological target: T3, Dog Semaphorin3A-Sema Domain, TPP-19121; assay: SPR, captured antibody, Sema3A domain analyte
# How it was run: as §1
# [4] = biological target: Human Semaphorin3A-Fc (R&D Systems), TPP-13211 (human); assay: cell-based or functional assay
# [5] = biological target: T4, Human Semaphorin3A-Fc (R&D Systems), TPP-13211 (human); assay: ELISA, coated Sema3A-Fc, antibody 0.00015-10 ug/ml
# T4 construct: R&D Systems 1250-S3; also called recombinant human Sema3A-Fc chimera
# T4 sequence (chain, as listed by the source limits assumed): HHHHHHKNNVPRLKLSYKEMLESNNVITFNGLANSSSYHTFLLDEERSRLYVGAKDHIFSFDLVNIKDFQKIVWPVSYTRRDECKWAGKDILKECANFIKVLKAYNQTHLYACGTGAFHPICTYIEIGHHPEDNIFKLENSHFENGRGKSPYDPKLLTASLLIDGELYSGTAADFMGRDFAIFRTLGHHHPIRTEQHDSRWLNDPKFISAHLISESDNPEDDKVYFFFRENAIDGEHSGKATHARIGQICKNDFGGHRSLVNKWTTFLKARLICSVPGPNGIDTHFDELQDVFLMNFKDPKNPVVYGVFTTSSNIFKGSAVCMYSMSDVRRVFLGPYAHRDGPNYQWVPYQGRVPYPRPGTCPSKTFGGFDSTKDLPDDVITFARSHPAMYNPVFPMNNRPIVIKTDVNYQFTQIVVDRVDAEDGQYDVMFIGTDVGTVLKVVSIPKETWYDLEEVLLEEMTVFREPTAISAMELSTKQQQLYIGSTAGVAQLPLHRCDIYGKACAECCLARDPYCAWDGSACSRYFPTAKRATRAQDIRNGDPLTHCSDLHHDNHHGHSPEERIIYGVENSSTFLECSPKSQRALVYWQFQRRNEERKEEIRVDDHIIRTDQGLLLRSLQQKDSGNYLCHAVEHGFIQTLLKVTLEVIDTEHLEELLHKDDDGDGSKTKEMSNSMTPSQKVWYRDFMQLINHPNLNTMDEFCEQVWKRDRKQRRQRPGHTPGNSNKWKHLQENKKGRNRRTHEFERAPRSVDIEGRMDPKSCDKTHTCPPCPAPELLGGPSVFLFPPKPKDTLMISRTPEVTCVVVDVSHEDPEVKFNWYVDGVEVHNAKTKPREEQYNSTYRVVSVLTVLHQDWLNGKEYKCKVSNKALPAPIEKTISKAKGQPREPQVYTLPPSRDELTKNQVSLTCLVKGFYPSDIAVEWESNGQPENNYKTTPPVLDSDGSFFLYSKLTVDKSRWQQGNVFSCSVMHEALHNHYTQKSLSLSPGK
# Method: For the assessment of binding selectivity to Sema3A vs Sema3G, 1 nM recombinant human Sema3A-Fc chimera (R&D Systems) or recombinant human GST—Sema3G (Abnova) were coated on Maxisorb plates, incubated with antibodies in a dose-response curve from 0.00015-10 μg/ml, and the binding of antibodies quantified using HRP coupled anti-human antiserum and chemiluminescent substrate.
Kd [1],Kd [2],Kd [3],"EC50 [nM], MCM assay [4]",EC50 [5],Binder
0.018 nM,0.038 nM,0.11 nM,1.43 nM,0.15 nM,"TPP-30788 (antibody, human IgG1, kappa, V domains shown, prior art, WO 2020/225400; also called BI clone I; Böhringer (BI) Clone I) VH: EVQLVESGGGLVQPGGSLRLSCAASGFTFSSYYMSWVRQAPGKGLEWVSTIIKSGGYAYYPDSVKDRFTISRDNSKNTLYLQMSSLRAEDTAVYYCVRGGQGAMDYWGQGTTVTVSS VL: EIVLTQSPATLSLSPGERATLSCRASQSIGDYLHWYQQKPGQAPRLLIKYASQSISGIPARFSGSGSGTDFTLTITSLEPEDFAVYYCQQGYSFPYTFGGGTKLEIKR"
0.053 nM,0.047 nM,0.045 nM,1.03 nM,7.7 nM,"TPP-23375 (antibody, human IgG4 S228P, lambda, V domains shown) VH: EVQLLESGGGLVQPGGSLRLSCAASGFTFYSYAMSWVRQAPGKGLEWVSAIGYGGDTYYADSVKGRFTISRDNSKNTLYLQMNSLRAEDTAVYYCARRDDYTSRDAFDYWGQGTLVTVSS VL: not shown"
0.0081 nM,< 0.003 nM,0.0073 nM,0.3 nM,6.1 nM,"TPP-23374 (antibody, human IgG4 S228P, lambda, V domains shown) VH: EVQLLESGGGLVQPGGSLRLSCAASGFTFYSYAMSWVRQAPGKGLEWVSAIGYGGDTYYADSVKGRFTISRDNSKNTLYLQMNSLRAEDTAVYYCARRDDYTSRDAFDYWGQGTLVTVSS VL: not shown"
0.11 nM,0.078 nM,0.1 nM,0.63 nM,17.6 nM,"TPP-23373 (antibody, human IgG4 S228P, lambda, V domains shown) VH: EVQLLESGGGLVQPGGSLRLSCAASGFTFYSYAMSWVRQAPGKGLEWVSAIGYGGDTYYADSVKGRFTISRDNSKNTLYLQMNSLRAEDTAVYYCARRDDYTSRDAFDYWGQGTLVTVSS VL: not shown"

# More lines, now with the values behind:
Binder,Kd [1],Kd [2],Kd [3],"EC50 [nM], MCM assay [4]",EC50 [5]
"TPP-23334 (antibody, human IgG4 S228P, lambda, V domains shown) VH: EVQLLESGGGLVQPGGSLRLSCAASGFTFSSYAMSWVRQAPGKGLEWVSAIGYGGDTYYADSVKGRFTISRDNSKNTLYLQMNSLRAEDTAVYYCARRDDYTSRDAFDYWGQGTLVTVSS VL: not shown",0.021 nM,0.014 nM,0.0084 nM,0.67 nM,9.2 nM
"TPP-23340 (antibody, human IgG4 S228P, lambda, V domains shown) VH: EVQLLESGGGLVQPGGSLRLSCAASGFTFSSYAMSWVRQAPGKGLEWVSAIGYGGDTYYADSVKGRFTISRDNSKNTLYLQMNSLRAEDTAVYYCARRDDYTSRDAFDYWGQGTLVTVSS VL: not shown",0.022 nM,0.062 nM,0.058 nM,0.87 nM,12.3 nM
"TPP-23338 (antibody, human IgG4 S228P, lambda, V domains shown) VH: EVQLLESGGGLVQPGGSLRLSCAASGFTFSSYAMSWVRQAPGKGLEWVSAIGYGGDTYYADSVKGRFTISRDNSKNTLYLQMNSLRAEDTAVYYCARRDDYTSRDAFDYWGQGTLVTVSS VL: not shown",0.054 nM,0.046 nM,0.053 nM,0.6 nM,9.6 nM
"TPP-23347 (antibody, human IgG4 S228P, lambda, V domains shown) VH: EVQLLESGGGLVQPGGSLRLSCAASGFTFYSYAMLWVRQAPGKGLEWVSAIGTGGDTYYADSVKGRFTISRDNSKNTLYLQMNSLRAEDTAVYYCARRDDYTSRDAFDYWGQGTLVTVSS VL: not shown",0.06 nM,0.053 nM,0.051 nM,0.67 nM,8.4 nM
"TPP-23341 (antibody, human IgG4 S228P, lambda, V domains shown) VH: EVQLLESGGGLVQPGGSLRLSCAASGFTFSSYAMSWVRQAPGKGLEWVSAIGYGGDTYYADSVKGRFTISRDNSKNTLYLQMNSLRAEDTAVYYCARRDDYTSRDAFDYWGQGTLVTVSS VL: not shown",0.091 nM,0.086 nM,0.084 nM,0.9 nM,21.3 nM
